Experimental data taken from PMC7884335.

How the values were obtained:
Conditions in all cases: EMSA: Tris-HCl pH 8.0, MgCl2, NaCl, EDTA, 1 mM DTT, 0.01% NP-40, 50 ug/ml poly[d(I-C)], glycerol (masses given, total volume not stated), room temperature …
[1] = tested on: His-RegX3 (Msm) (Mycobacterium smegmatis MC2 155); assay: BLI
[2] = tested on: His-PrpR (Msm) (Mycobacterium smegmatis MC2 155); assay: BLI
[3] = target: T1, His-RegX3 (Msm) (Mycobacterium smegmatis MC2 155) (UniProt Q9F868); assay: EMSA
T1 sequence: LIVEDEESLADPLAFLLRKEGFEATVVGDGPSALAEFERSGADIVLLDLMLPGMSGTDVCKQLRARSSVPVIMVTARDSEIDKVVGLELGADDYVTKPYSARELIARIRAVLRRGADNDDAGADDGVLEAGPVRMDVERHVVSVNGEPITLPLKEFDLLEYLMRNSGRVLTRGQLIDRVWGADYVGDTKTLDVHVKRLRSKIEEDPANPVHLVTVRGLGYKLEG

| Substance | Kd [1] | Kd [2] | binding [3] |
| --- | --- | --- | --- |
| prpR promoter probe for BLI (Msm) | 165 nM | 53.2 nM |  |
| AGCCAGTGGCGATAAGACACACAGCCTAACCGCGATTCTTACACAGGATTTGCAAAGGCTGGCCCACCAGGACACAAAACTACGCATATACAGGCTCTTTACGTGCCATTAGGGGCCTTATCGCCACTGGCT (double strand) [PprpR-3] |  |  | binds |
